*1 amine or outer side, *2 acyl side, *3 side chain or, on linkers, in order; H or OH if unused. Side-chain parts run from the residue outwards. The star is where a group is joined. C18 diacid = O=C(O)CCCCCCCCCCCCCCCCC(=O)*; γGlu = O=C(O)[C@H](CCC(=O)[*:2])N[*:1]; Isovaleryl = CC(C)CC(=O)*; Ahx = NCCCCCC(=O)O
T1: human NPY2 receptor (human, UniProt P49146 1-381)
T1 construct: whole, on cells; also called hNPY2-R; hNPY2R
T1 sequence (looked up): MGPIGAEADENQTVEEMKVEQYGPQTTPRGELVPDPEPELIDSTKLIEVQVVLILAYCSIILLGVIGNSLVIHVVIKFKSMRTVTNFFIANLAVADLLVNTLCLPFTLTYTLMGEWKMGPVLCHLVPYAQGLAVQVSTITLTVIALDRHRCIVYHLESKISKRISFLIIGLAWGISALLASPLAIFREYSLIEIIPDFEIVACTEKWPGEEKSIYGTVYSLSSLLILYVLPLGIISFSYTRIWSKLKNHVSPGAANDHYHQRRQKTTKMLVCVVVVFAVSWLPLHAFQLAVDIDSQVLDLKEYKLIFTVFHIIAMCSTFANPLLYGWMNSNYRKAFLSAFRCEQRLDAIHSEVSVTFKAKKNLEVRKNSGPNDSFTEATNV

T2: human NPY1 receptor (human, UniProt P25929 1-384)
T2 sequence (looked up): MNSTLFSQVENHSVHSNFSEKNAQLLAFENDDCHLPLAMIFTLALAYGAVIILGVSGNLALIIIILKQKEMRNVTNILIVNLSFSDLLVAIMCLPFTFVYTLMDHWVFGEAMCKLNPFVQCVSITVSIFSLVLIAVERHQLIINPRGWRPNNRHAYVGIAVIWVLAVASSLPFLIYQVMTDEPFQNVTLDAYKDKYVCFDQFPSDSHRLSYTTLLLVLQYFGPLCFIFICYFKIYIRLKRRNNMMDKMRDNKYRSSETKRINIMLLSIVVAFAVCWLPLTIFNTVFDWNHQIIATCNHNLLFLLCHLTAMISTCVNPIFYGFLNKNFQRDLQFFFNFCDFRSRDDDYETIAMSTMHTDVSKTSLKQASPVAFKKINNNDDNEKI

T3: human NPY5 receptor (human, UniProt Q15761 1-445)
T3 sequence (looked up): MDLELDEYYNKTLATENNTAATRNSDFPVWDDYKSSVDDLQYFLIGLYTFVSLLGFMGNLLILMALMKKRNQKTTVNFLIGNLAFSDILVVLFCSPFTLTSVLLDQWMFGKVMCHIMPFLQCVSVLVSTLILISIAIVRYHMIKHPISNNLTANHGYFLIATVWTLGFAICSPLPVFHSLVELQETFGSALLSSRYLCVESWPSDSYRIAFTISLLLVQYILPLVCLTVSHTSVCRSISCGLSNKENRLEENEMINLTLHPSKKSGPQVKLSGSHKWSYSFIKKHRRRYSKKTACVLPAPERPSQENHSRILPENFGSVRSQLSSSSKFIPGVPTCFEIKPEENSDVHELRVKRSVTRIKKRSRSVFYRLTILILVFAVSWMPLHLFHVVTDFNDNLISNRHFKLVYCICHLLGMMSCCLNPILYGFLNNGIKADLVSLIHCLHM


Columns and labels:
[1] = molecular target: T1, human NPY2 receptor; test: RLB: displacement of 125I-PYY(1-36) from hNPY2R membranes
[2] = molecular target: human NPY4 receptor (human, UniProt P50391 1-375); test: cell-based or functional assay
Chain of human NPY4 receptor (P50391 whole entry): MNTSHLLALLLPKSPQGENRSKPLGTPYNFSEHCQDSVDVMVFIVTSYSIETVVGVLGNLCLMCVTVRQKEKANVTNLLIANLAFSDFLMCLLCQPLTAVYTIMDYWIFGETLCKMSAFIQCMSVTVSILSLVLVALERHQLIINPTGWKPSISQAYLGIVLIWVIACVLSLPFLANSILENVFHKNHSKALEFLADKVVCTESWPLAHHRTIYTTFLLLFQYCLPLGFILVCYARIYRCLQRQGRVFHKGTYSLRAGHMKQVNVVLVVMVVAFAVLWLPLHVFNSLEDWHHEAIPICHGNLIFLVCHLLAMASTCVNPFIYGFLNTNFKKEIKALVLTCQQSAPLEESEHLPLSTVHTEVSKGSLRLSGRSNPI

[3] = molecular target: T2, human NPY1 receptor; test: cell-based or functional assay
[4] = molecular target: T1, human NPY2 receptor; test: cell-based or functional assay
[5] = molecular target: T3, human NPY5 receptor; test: cell-based or functional assay

Binder | Ki [1] [nM] | EC50, HTRF cAMP Gi assay [2] [nM] | EC50, HTRF cAMP Gi assay [3] [nM] | EC50, HTRF cAMP Gi assay [4] [nM] | EC50, HTRF cAMP Gi assay [5] [nM]
Isovaleryl-APEK([Ahx-γGlu-C18 diacid])PEEDASEEEIQRYYVSLRHYYNWLTRQRY-NH2 (SMILES CC[C@H](C)[C@H](NC(=O)[C@H](CCC(=O)O)NC(=O)[C@H](CCC(=O)O)NC(=O)[C@H](CCC(=O)O)NC(=O)[C@H](CO)NC(=O)[C@H](C)NC(=O)[C@H](CC(=O)O)NC(=O)[C@H](CCC(=O)O)NC(=O)[C@H](CCC(=O)O)NC(=O)[C@@H]1CCCN1C(=O)[C@H](CCCCNC(=O)CCCCCNC(=O)CC[C@H](NC(=O)CCCCCCCCCCCCCCCCC(=O)O)C(=O)O)NC(=O)[C@H](CCC(=O)O)NC(=O)[C@@H]1CCCN1C(=O)[C@H](C)NC(=O)CC(C)C)C(=O)N[C@@H](CCC(N)=O)C(=O)N[C@@H](CCCNC(=N)N)C(=O)N[C@@H](Cc1ccc(O)cc1)C(=O)N[C@@H](Cc1ccc(O)cc1)C(=O)N[C@H](C(=O)N[C@@H](CO)C(=O)N[C@@H](CC(C)C)C(=O)N[C@@H](CCCNC(=N)N)C(=O)N[C@@H](Cc1c[nH]cn1)C(=O)N[C@@H](Cc1ccc(O)cc1)C(=O)N[C@@H](Cc1ccc(O)cc1)C(=O)N[C@@H](CC(N)=O)C(=O)N[C@@H](Cc1c[nH]c2ccccc12)C(=O)N[C@@H](CC(C)C)C(=O)N[C@H](C(=O)N[C@@H](CCCNC(=N)N)C(=O)N[C@@H](CCC(N)=O)C(=O)N[C@@H](CCCNC(=N)N)C(=O)N[C@@H](Cc1ccc(O)cc1)C(N)=O)[C@@H](C)O)C(C)C) [Compound 55] | 2.96 | > 5000 | > 5000 | 0.352 | > 5000
Isovaleryl-APEK([Ahx-γGlu-C18 diacid])PEEDAEPEEVQRYYVSLRHYYNWLTRQRY-NH2 (SMILES CC(C)CC(=O)N[C@@H](C)C(=O)N1CCC[C@H]1C(=O)N[C@@H](CCC(=O)O)C(=O)N[C@@H](CCCCNC(=O)CCCCCNC(=O)CC[C@H](NC(=O)CCCCCCCCCCCCCCCCC(=O)O)C(=O)O)C(=O)N1CCC[C@H]1C(=O)N[C@@H](CCC(=O)O)C(=O)N[C@@H](CCC(=O)O)C(=O)N[C@@H](CC(=O)O)C(=O)N[C@@H](C)C(=O)N[C@@H](CCC(=O)O)C(=O)N1CCC[C@H]1C(=O)N[C@@H](CCC(=O)O)C(=O)N[C@@H](CCC(=O)O)C(=O)N[C@H](C(=O)N[C@@H](CCC(N)=O)C(=O)N[C@@H](CCCNC(=N)N)C(=O)N[C@@H](Cc1ccc(O)cc1)C(=O)N[C@@H](Cc1ccc(O)cc1)C(=O)N[C@H](C(=O)N[C@@H](CO)C(=O)N[C@@H](CC(C)C)C(=O)N[C@@H](CCCNC(=N)N)C(=O)N[C@@H](Cc1c[nH]cn1)C(=O)N[C@@H](Cc1ccc(O)cc1)C(=O)N[C@@H](Cc1ccc(O)cc1)C(=O)N[C@@H](CC(N)=O)C(=O)N[C@@H](Cc1c[nH]c2ccccc12)C(=O)N[C@@H](CC(C)C)C(=O)N[C@H](C(=O)N[C@@H](CCCNC(=N)N)C(=O)N[C@@H](CCC(N)=O)C(=O)N[C@@H](CCCNC(=N)N)C(=O)N[C@@H](Cc1ccc(O)cc1)C(N)=O)[C@@H](C)O)C(C)C)C(C)C) [Compound 53] | 3.07 | > 5000 | > 5000 | 0.352 | > 5000

Stronger by Ki [1], values ahead:

Ki [1] [nM] | EC50, HTRF cAMP Gi assay [2] [nM] | EC50, HTRF cAMP Gi assay [3] [nM] | EC50, HTRF cAMP Gi assay [4] [nM] | EC50, HTRF cAMP Gi assay [5] [nM] | Binder
1.4 | > 5000 | > 5000 | 0.136 | > 5000 | Isovaleryl-APEK([Ahx-γGlu-C18 diacid])PEADASPEEIQRYYISLRHYYNWLTRQRY-NH2 (SMILES CC[C@H](C)[C@H](NC(=O)[C@H](Cc1ccc(O)cc1)NC(=O)[C@H](Cc1ccc(O)cc1)NC(=O)[C@H](CCCNC(=N)N)NC(=O)[C@H](CCC(N)=O)NC(=O)[C@@H](NC(=O)[C@H](CCC(=O)O)NC(=O)[C@H](CCC(=O)O)NC(=O)[C@@H]1CCCN1C(=O)[C@H](CO)NC(=O)[C@H](C)NC(=O)[C@H](CC(=O)O)NC(=O)[C@H](C)NC(=O)[C@H](CCC(=O)O)NC(=O)[C@@H]1CCCN1C(=O)[C@H](CCCCNC(=O)CCCCCNC(=O)CC[C@H](NC(=O)CCCCCCCCCCCCCCCCC(=O)O)C(=O)O)NC(=O)[C@H](CCC(=O)O)NC(=O)[C@@H]1CCCN1C(=O)[C@H](C)NC(=O)CC(C)C)[C@@H](C)CC)C(=O)N[C@@H](CO)C(=O)N[C@@H](CC(C)C)C(=O)N[C@@H](CCCNC(=N)N)C(=O)N[C@@H](Cc1c[nH]cn1)C(=O)N[C@@H](Cc1ccc(O)cc1)C(=O)N[C@@H](Cc1ccc(O)cc1)C(=O)N[C@@H](CC(N)=O)C(=O)N[C@@H](Cc1c[nH]c2ccccc12)C(=O)N[C@@H](CC(C)C)C(=O)N[C@H](C(=O)N[C@@H](CCCNC(=N)N)C(=O)N[C@@H](CCC(N)=O)C(=O)N[C@@H](CCCNC(=N)N)C(=O)N[C@@H](Cc1ccc(O)cc1)C(N)=O)[C@@H](C)O) [Compound 11]
1 | > 5000 | > 5000 | 0.161 | > 5000 | Isovaleryl-APEK([Ahx-γGlu-C18 diacid])PPEDAEPEEIQRYYVSLRHYYNWLTRQRY-NH2 (SMILES CC[C@H](C)[C@H](NC(=O)[C@H](CCC(=O)O)NC(=O)[C@H](CCC(=O)O)NC(=O)[C@@H]1CCCN1C(=O)[C@H](CCC(=O)O)NC(=O)[C@H](C)NC(=O)[C@H](CC(=O)O)NC(=O)[C@H](CCC(=O)O)NC(=O)[C@@H]1CCCN1C(=O)[C@@H]1CCCN1C(=O)[C@H](CCCCNC(=O)CCCCCNC(=O)CC[C@H](NC(=O)CCCCCCCCCCCCCCCCC(=O)O)C(=O)O)NC(=O)[C@H](CCC(=O)O)NC(=O)[C@@H]1CCCN1C(=O)[C@H](C)NC(=O)CC(C)C)C(=O)N[C@@H](CCC(N)=O)C(=O)N[C@@H](CCCNC(=N)N)C(=O)N[C@@H](Cc1ccc(O)cc1)C(=O)N[C@@H](Cc1ccc(O)cc1)C(=O)N[C@H](C(=O)N[C@@H](CO)C(=O)N[C@@H](CC(C)C)C(=O)N[C@@H](CCCNC(=N)N)C(=O)N[C@@H](Cc1c[nH]cn1)C(=O)N[C@@H](Cc1ccc(O)cc1)C(=O)N[C@@H](Cc1ccc(O)cc1)C(=O)N[C@@H](CC(N)=O)C(=O)N[C@@H](Cc1c[nH]c2ccccc12)C(=O)N[C@@H](CC(C)C)C(=O)N[C@H](C(=O)N[C@@H](CCCNC(=N)N)C(=O)N[C@@H](CCC(N)=O)C(=O)N[C@@H](CCCNC(=N)N)C(=O)N[C@@H](Cc1ccc(O)cc1)C(N)=O)[C@@H](C)O)C(C)C) [Compound 118]
0.95 | > 5000 | > 5000 | 0.186 | > 5000 | Isovaleryl-APAK([Ahx-γGlu-C18 diacid])PEEDATPEEIQRYYVSLRHYYNWLTRQRY-NH2 (SMILES CC[C@H](C)[C@H](NC(=O)[C@H](CCC(=O)O)NC(=O)[C@H](CCC(=O)O)NC(=O)[C@@H]1CCCN1C(=O)[C@@H](NC(=O)[C@H](C)NC(=O)[C@H](CC(=O)O)NC(=O)[C@H](CCC(=O)O)NC(=O)[C@H](CCC(=O)O)NC(=O)[C@@H]1CCCN1C(=O)[C@H](CCCCNC(=O)CCCCCNC(=O)CC[C@H](NC(=O)CCCCCCCCCCCCCCCCC(=O)O)C(=O)O)NC(=O)[C@H](C)NC(=O)[C@@H]1CCCN1C(=O)[C@H](C)NC(=O)CC(C)C)[C@@H](C)O)C(=O)N[C@@H](CCC(N)=O)C(=O)N[C@@H](CCCNC(=N)N)C(=O)N[C@@H](Cc1ccc(O)cc1)C(=O)N[C@@H](Cc1ccc(O)cc1)C(=O)N[C@H](C(=O)N[C@@H](CO)C(=O)N[C@@H](CC(C)C)C(=O)N[C@@H](CCCNC(=N)N)C(=O)N[C@@H](Cc1c[nH]cn1)C(=O)N[C@@H](Cc1ccc(O)cc1)C(=O)N[C@@H](Cc1ccc(O)cc1)C(=O)N[C@@H](CC(N)=O)C(=O)N[C@@H](Cc1c[nH]c2ccccc12)C(=O)N[C@@H](CC(C)C)C(=O)N[C@H](C(=O)N[C@@H](CCCNC(=N)N)C(=O)N[C@@H](CCC(N)=O)C(=O)N[C@@H](CCCNC(=N)N)C(=O)N[C@@H](Cc1ccc(O)cc1)C(N)=O)[C@@H](C)O)C(C)C) [Compound 114]
